Values belong to the substance of their own block, whether it stands above or below them.
Legend:
[1] = target: microtubule (polymerized tubulin, taxol-stabilised) (UniProt P02550)
[2] = target: microtubule (polymerized tubulin, taxol-stabilised) (UniProt P02550); assay: stopped-flow turbidity (light scattering); oxidized condition (10 uM CuCl2, 20 uM o-phenanthroline); nucleotide-free complex of 3.2 uM kinesin and 4 uM microtubule (20 uM taxol, 0.1 U/ml apyrase), 150 mM KCl added, rapidly mixed with 1 mM ATP plus 150 mM KCl; BRB25 pH 6.8, 25 C; turbidity at 340 nm, burst equation
[3] = target: microtubule (polymerized tubulin, taxol-stabilised) (UniProt P02550); assay: high-speed total internal reflection dark-field microscopy of gold-labeled kinesin; microtubules held on glass by protein A and anti-alpha-tubulin antibody, 3 nM gold-labeled kinesin, BRB12 with 20 mM KCl and 1-1000 uM ATP, 24-26 C, 20,000 fps; bound and unbound states of the gold-labeled WT head while the E236A head stays bound
[4] = target: microtubule (polymerized tubulin, taxol-stabilised) (UniProt P02550); remark: listed apart in the source
[5] = target: axonemes (purified from sea urchin sperm flagella) (sea urchin); assay: single-molecule fluorescence microscopy (TIRF), dwell time; reducing condition (70 mM 2-mercaptoethanol); axonemes on the slide, 200 or 500 pM GFP-kinesin in solution, 1 mM ATP, 100 mM KCl, BRB12; 10 ms resolution; k2_SMF is the inverse of the mean dwell time
[6] = target: microtubule (polymerized tubulin, taxol-stabilised) (UniProt P02550); assay: stopped-flow turbidity (light scattering); reduced condition (10 mM DTT); nucleotide-free complex of 3.2 uM kinesin and 4 uM microtubule (20 uM taxol, 0.1 U/ml apyrase), 150 mM KCl added, rapidly mixed with 1 mM ATP plus 150 mM KCl; BRB25 pH 6.8, 25 C; turbidity at 340 nm, burst equation
[7] = target: axonemes (purified from sea urchin sperm flagella) (sea urchin); assay: single-molecule fluorescence microscopy (TIRF), dwell time; oxidized condition (no 2-mercaptoethanol); axonemes on the slide, 200 or 500 pM GFP-kinesin in solution, 1 mM ATP, 100 mM KCl, BRB12; 10 ms resolution; k2_SMF is the inverse of the mean dwell time
[8] = target: microtubule (polymerized tubulin, taxol-stabilised) (UniProt P02550); assay: single-molecule fluorescence (smFRET with Alexa-ATP, TIRF) on microtubules; microtubules on a poly-L-lysine-coated slide, 100 pM ATTO488-kinesin, 500 nM Alexa Fluor 647 ATP, 150 mM KCl, 20 uM taxol, BRB12, 22 C, 10 ms exposure

Chain of UniProt P02550 (P02550 whole entry, looked up): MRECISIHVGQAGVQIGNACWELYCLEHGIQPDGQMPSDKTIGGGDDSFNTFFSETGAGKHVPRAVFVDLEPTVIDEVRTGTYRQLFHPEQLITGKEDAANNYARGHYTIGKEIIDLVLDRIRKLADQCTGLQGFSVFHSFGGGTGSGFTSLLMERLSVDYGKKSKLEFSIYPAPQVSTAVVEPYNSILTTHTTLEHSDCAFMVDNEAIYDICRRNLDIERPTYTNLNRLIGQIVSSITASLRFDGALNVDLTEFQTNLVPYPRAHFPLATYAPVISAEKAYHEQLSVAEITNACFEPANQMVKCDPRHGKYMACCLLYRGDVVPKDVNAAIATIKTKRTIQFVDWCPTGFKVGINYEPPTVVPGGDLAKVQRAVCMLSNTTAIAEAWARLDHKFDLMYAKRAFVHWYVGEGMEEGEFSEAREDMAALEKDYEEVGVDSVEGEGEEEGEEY

Substance: Cys-light K339 C47/C335 monomer, reduced (un-crosslinked) (from UniProt P33176 1-339) (domain or fragment)
Km(MT) of the steady-state microtubule-activated ATPase, reduced condition [1]: 0.33 µM | k2 (ATP-induced dissociation rate from microtubule, light scattering) [6]: 41.6 s⁻¹

Substance: Cys-light K339 C4/C330 monomer, reduced (un-crosslinked) (from UniProt P33176 1-339) (domain or fragment)
Km(MT) of the steady-state microtubule-activated ATPase, reduced condition [1]: 0.42 µM | k2 (ATP-induced dissociation rate from microtubule, light scattering) [6]: 68.6 s⁻¹

Substance: Cys-light K339 C47/C328 monomer, reduced (un-crosslinked) (from UniProt P33176 1-339) (domain or fragment)
Km(MT) of the steady-state microtubule-activated ATPase, reduced condition [1]: 0.28 µM | k2 (ATP-induced dissociation rate from microtubule, light scattering) [6]: 51.5 s⁻¹

Substance: Cys-light K339 C4/C330 monomer, oxidized (disulfide-crosslinked between cover strand and neck linker) (from UniProt P33176 1-339) (domain or fragment)
Km(MT) of the steady-state microtubule-activated ATPase, oxidized condition [1]: 8.36 µM | k2 (ATP-induced dissociation rate from microtubule, light scattering) [2]: 80.8 s⁻¹

Substance: GFP-fused K339 Cys-light C47/C328 kinesin, oxidized (front head crosslink) (from UniProt P33176 1-339) (domain or fragment)
fold increase of the binding frequency to the microtubule after crosslinking [7]: 4 fold | k2 SMF (inverse of the mean dwell time on the microtubule, 1 mM ATP) [7]: 2.3 s⁻¹

Substance: GFP-fused K339 Cys-light C47/C335 kinesin, reduced (from UniProt P33176 1-339) (domain or fragment)
k2 SMF (inverse of the mean dwell time on the microtubule, 1 mM ATP) [5]: 52.1 s⁻¹

Substance: GFP-fused K339 Cys-light kinesin (WT, no cysteine introduction) (from UniProt P33176 1-339) (domain or fragment)
k2 SMF (inverse of the mean dwell time on the microtubule, 1 mM ATP) [5]: 44 s⁻¹ | k2 SMF (inverse of the mean dwell time on the microtubule, 1 mM ATP) [7]: 41.6 s⁻¹

Substance: GFP-fused K339 Cys-light C4/C330 kinesin, oxidized (crosslinked) (from UniProt P33176 1-339) (domain or fragment)
k2 SMF (inverse of the mean dwell time on the microtubule, 1 mM ATP) [7]: 58.4 s⁻¹

Substance: E236A–WT heterodimer without neck-linker extension (G0), WT head labeled with a gold nanoparticle (from UniProt P33176 1-490; P33176 1-490) (complex)
dwell time of the microtubule-bound state of the front WT head at 10 µM ATP [3]: 1.1 s | kcat of the inverse bound dwell time against ATP, taken as the ATP-promoted detachment rate k2 of the front WT head [3]: 6.3 s^–1 | mean dwell time of the microtubule-bound state of the front WT head at 1 mM ATP [3]: 160 ms | mean dwell time of the unbound state of the front WT head at 1 mM ATP [3]: 11 ms | Km (MT) of the microtubule-activated ATPase of the heterodimer (G0) [4]: 0.54 µM

Now from value to substance:

Km(MT) of the steady-state microtubule-activated ATPase, oxidized condition [1]: 0.13 µM | k2 (ATP-induced dissociation rate from microtubule, light scattering) [2]: 7 s⁻¹
Substance: Cys-light K339 C47/C328 monomer, oxidized (disulfide-crosslinked; front head crosslink) (from UniProt P33176 1-339) (domain or fragment)

Km(MT) of the steady-state microtubule-activated ATPase, oxidized condition [1]: 0.2 µM
Substance: Cys-light K339 C222/C334 monomer, oxidized (disulfide-crosslinked; rear head crosslink) (from UniProt P33176 1-339) (domain or fragment)

kcat of the inverse bound dwell time against ATP, taken as the ATP-induced detachment rate k2 of the front WT head [3]: 7.6 s^–1 | Km (MT) of the microtubule-activated ATPase of the heterodimer (G7) [4]: 0.18 µM
Substance: E236A–WT heterodimer with a 7 poly-Gly insertion (G7), WT head labeled with a gold nanoparticle (from UniProt P33176 1-490; P33176 1-490) (complex)

k2 SMF (inverse of the mean dwell time on the microtubule, 1 mM ATP) [5]: 59.5 s⁻¹
Substance: GFP-fused K339 Cys-light C4/C330 kinesin, reduced (from UniProt P33176 1-339) (domain or fragment)

k2 SMF (inverse of the mean dwell time on the microtubule, 1 mM ATP) [5]: 47.2 s⁻¹
Substance: GFP-fused K339 Cys-light C222/C334 kinesin, reduced (from UniProt P33176 1-339) (domain or fragment)

k2 SMF (inverse of the mean dwell time on the microtubule, 1 mM ATP) [7]: 22.5 s⁻¹
Substance: GFP-fused K339 Cys-light C47/C335 kinesin, oxidized (crosslinked) (from UniProt P33176 1-339) (domain or fragment)

inverse of the mean dwell time for head dissociation (Alexa-ATP-bound state ending in detachment from the microtubule) [8]: 89.7 s^–1
Substance: ATTO488-labeled 'wild-type' monomer (Cys-light K349 monomeric kinesin with Cys55) (from UniProt P33176 1-349) (domain or fragment)

k2 SMF (inverse of the mean dwell time on the microtubule, 1 mM ATP) [5]: 42.1 s⁻¹
Substance: GFP-fused K339 Cys-light C47/C328 kinesin, reduced (from UniProt P33176 1-339) (domain or fragment)

fold reduction of the binding frequency to the microtubule after crosslinking [7]: 6 fold | k2 SMF (inverse of the mean dwell time on the microtubule, 1 mM ATP) [7]: 57.1 s⁻¹
Substance: GFP-fused K339 Cys-light C222/C334 kinesin, oxidized (rear head crosslink) (from UniProt P33176 1-339) (domain or fragment)

dwell time of the WT head bound at the front-binding site at 1 mM ATP [3]: 111 ms | dwell time of the WT head bound at the rear-tubulin-binding site at 1 mM ATP [3]: 19 ms | kcat of the inverse bound dwell time against ATP, taken as the ATP-induced detachment rate k2 of the front WT head [3]: 9.3 s^–1 | Km (MT) of the microtubule-activated ATPase of the heterodimer (G12) [4]: 0.14 µM
Substance: E236A–WT heterodimer with a 12 poly-Gly insertion (G12), WT head labeled with a gold nanoparticle (from UniProt P33176 1-490; P33176 1-490) (complex)

Km(MT) of the steady-state microtubule-activated ATPase, oxidized condition [1]: 0.1 µM | k2 (ATP-induced dissociation rate from microtubule, light scattering) [2]: 19.4 s⁻¹
Substance: Cys-light K339 C47/C335 monomer, oxidized (disulfide-crosslinked; loose backward crosslink) (from UniProt P33176 1-339) (domain or fragment)

Km(MT) of the steady-state microtubule-activated ATPase, oxidized condition [1]: 0.36 µM | Km(MT) of the steady-state microtubule-activated ATPase, reduced condition [1]: 0.31 µM | k2 (ATP-induced dissociation rate from microtubule, light scattering) [2]: 59.1 s⁻¹ | k2 (ATP-induced dissociation rate from microtubule, light scattering) [6]: 52.1 s⁻¹
Substance: Cys-light K339 monomeric kinesin with no cysteine introduction (WT) (from UniProt P33176 1-339) (domain or fragment)

Km(MT) of the steady-state microtubule-activated ATPase, reduced condition [1]: 0.23 µM | k2 (ATP-induced dissociation rate from microtubule, light scattering) [6]: 69.3 s⁻¹
Substance: Cys-light K339 C222/C334 monomer, reduced (un-crosslinked) (from UniProt P33176 1-339) (domain or fragment)
